Measured values: the NTF2 design screens of Basanta et al. (2020)

Test: protease stability score; higher = more stable; yeast display proteolysis, trypsin and chymotrypsin;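 note: relative to predicted unfolded state with 0 unfolded-like and 1 meaning tenfold more protease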

| Sequence | protease stability score |
| --- | --- |
| TEREEENRIARQLFEHDWETGDEDSIHRLADPHALLTDENEKLHGREDVTDWIIKVSRKYKNLQFRVTDQELQGNKLIIYSTSKYNGRTFHLIFFVLKVDGRWHFHHMRIE | 1.36 |
| SEDDEAVSHALHLLSEVLLTGDERTWKRLADPNVKLEFNGREFHGMEEWKRMLDHIRIDHVKIELERSDSIGDKMHTHGRLIVHTTINGVELDRITDVRFIIEKVDGRWKLTSLHIH | 1.29 |
| SEEKERNHEIAEILIKLWLTGDEDHFWQLADPNPRVDFDGQEIIGRESIMRLLEHLIRRLGINHKHVDHTERQGDKVHIEVRLDQGEYHRTLHLEFIYVNGRVKEVRIRSRER | 1.4 |
| DDEEKEHLEMLKQFWENSYTGDERTLLHLLDPHARFILEFNGKSLQYHGREEVARFLRWLLEHIRVKDSHIHDIDVIGEKAVVDGRMHGEIDGREVEKETRLFIVVIDGRITKVFIEVR | 1.6 |
| DEHRELEERMHELIQKANETGDWERWMELADPHTRLIVGDKEFHGMERSYEHILELFRRLGVERVEVRIERRDEQGEKINLDVIIIIGDKTIRLILIIYKVDGRWLLRSVEIR | 1.63 |
| DEDEEISHRMVRLIMQLMVTGDEESLKEYFDPNTRLFIDGRNNHGRELAVDEIQKHFEELGVDHIEIRIHHKDAQGDFVEIHIRLIIHVGDFEVRSTVHIFVRKVDGRWMIEKIEIK | 2.03 |
| TEEDEHSRVAIEQTIRTLETGDEKEWERELDPHVRINIGEKHFHGRERAVELWLRLGVKHFRIKEVEHQGNKIIVHGSINVNGVKIEMYSIAEKIDGKWHLTHMHIP | 1.53 |
| DEEDEANKQIMEHLRKVWDTGDFHTYLRLADPHMRFIVGDKIFHGREEITQLIKELLEKFGADHVELENSRESLVGDKLHLDLHTRYHFNGREIRVDVHNEVTKIDGKWHIKFLSLRIK | 1.42 |
| SEDHEIIRHYFELLVESFRTGDEETTRRLADPNTRLYFNGKTLHGMEAMLEVLLEIRIEEVELHHVEVINGRVEMDGTVRGIFNGRNQEVKVTFHARKINGVWILNWVEIH | 2.12 |
| RQEEHDMEYAREIVERVLDTGDEHLMEEYFDPNAKLRIGDKEDHGREVFAHWVREIRVRHVQLTDHRLVGDKLEFDIELDININGREHRTKVHLIIRKVNGKWFIQHVEIR | 1.19 |
| DEEKDIIERMSKMITRSWETGNEDWLSELADPDVKFHINGRDHHGMEEMARLWLELVLKLGVKHQTIEHLSIQGDKVHIHSRSDFNGRHMKLEIRVLLVNGKIRSVTVHLHVD | 0.633 |
| DEEDKEAHEMVNDALQDFLTGDEDSLRNLVDPNARFEAENHHLIGMETVEWHIREFKNVTIEVKRVDVEVQGDKAILRMNIDIRVNGKTIDEHWEVHVRKFNGQWIITIVKVEFR | 2.17 |
| DELREHVEEVMRWFFERIKTGDEENFHKMADPDARLQVGDKNVHGRENVLKEWRRHREEIRIEDMKIRELHVIGNYAYLDIHVDITYNGKRKETRVELRVVVIDGRIEHIEIRIN | 0.439 |
| EEEEEELLELLKRLWHAKSTGDEETTEKMADPNARFIINGREVHGRHMLNHLVKHLREEIKHVHIHRVSVVNGKAKMDTEVNVELEYNGVTFIIRTRVEIDTVVIDGRFHSVSIEIR | 1.12 |
| DEKEHLLKLAIDILKHLHETGDETLAEELADPNTRVHYGDKHIHGRQRYIEHLHRERRRLGVDHSQIELHNWEVVDGRLHLDGKLTLLVGDKRIEFKVRIIMDKVNGRWILHSLEFH | 0.608 |
| SDEDEEMRELMERIHHAIKTGDEDLLHHMFDPNARVDIDGQIWHGREWEHFFLRKFKGLRIEIKRVHVQGDKIHFRGLDEINGVKFDSHLIIIIVNGKTHAIEIDHR | 1.53 |
| SHVKEIIRHFFDELVRRRETGDEEVLKELADPHTRLRVGEKEIHGWDEILTRFITWLEIHGAEYTDHRIHDIRVVGEKVHVESEIDIDYNGKHVEHHFEIVVEKINGRWRMKSIFVS | 1.27 |
| DDKDQHEEVEKFARNVVSGNSDELRKQMDKDVRANVGDKTLRGREEVADFWKHMRDRIDHAEIKEIRFHNGEARIVMQFVHNGRTKQINIVMEFHDGHVKRLRVEDG | 2.58 |
| DEDERFFHEMLELWMHIYETGDWNRLHELFDPNALLLIGDKQVHGREKVTHYLFEMVHRADHSESRVRELHVIDGRVHIHLELHIDQGDKHLRIEIFLHAKKVNGRWVFTKLELR | 1.99 |
| TEDEEYVKHIIDLFWHVKKTGDESHMKELADPNVRIEVDGRDIIGMEDVLKWEKDHREKIKGIRLNVHQWRIIGNKVESDLIVNINGVTIEFHVTVIIVNGKLHSLRVEFE | 1.21 |
| DELEQLAREVWETLRRAELTGDENRIHEMLDPNVRVDINGRESHGWDSFIYLLRELRFEDMHERDYRIRDVNGRLEITVTGDLEGEFNGKHFNRHTVIIIILEKYDGRWKVHEVKIELR | 2.19 |
| DEIEEEVRKFAEIHSRDLMTGNFESFREQADPHVRVIINGREFHGWHFLFHWLQEMRIHRVRIEDVRVYGDKAILDTRVESHVDGRTFDLEFKLVLSKVDGRWRVHQIILR | 1.11 |
| TEEEEIYERVARLWAEAMLTGDWKTETNLLDPHTRYDYDVDGKHIHLHGREHFKKMLEDLLRHLRFRIRVEEIHVYGEKVEVHGKLDIHVGDKTTHEHTSVQIYVVNGKMKSIRVHSH | 1.49 |
| SEDEEDLRRIFELLMELWLTGDERHMEHLIDPNAKLHYDGVEYHGREDARRLIHRFDVFEDARVRRVRLIDGQVRMDTHFIGRVDGRRIQVDSIIFMRKINGRWVSKEEVYV | 1.34 |
| DETTEHVRKLTELLLRSWVTGDEETDEKMADPNVRIIFEGREVHGMHWFSRVVKELRIEHVQIHDERFKVFEGRAEMRVDTHLRGTQGNYHDERKVRVEIHIIKVNGRWHLETIRVSVH | 1.21 |

| Sequence | protease stability score |
| --- | --- |
| SEDERYAEIADRIVRHSQETGDETDHMRMMDPDVRIEIGDKRYHGRELEHKLLKIWGVTRIEYDVRSIEVQGEKVRIDGVINFNGVELKIILYVLKFNGKWSYTKVEIQ | 1.84 |
| THEEEQARRALKHLIELEKTGDEEKWSHLADPNVRMEINGRQVHGRETIRKIYHEWRRKLGVNHIHHIEIKHIDIQGEKLRVEMHVNSQYGDKTLLIETEIELDKIDGKWIITMHYER | 1.15 |
| SEEEEILRHIVELLLHILITGNEHALRTLLDPNARVDINGVTIHGREQESHIILEEVERIDHMDLKIEHLHVQGDKVHTKVERTIHIGEKEIRIEEEINLVIFNGRLRVSILHVH | 0.97 |
| DEQHKEVRTFLEIHINMRATGNEEILFHQVDPHVRLIINGRQFHGWEEYEKFAHTSARFFKNVQIRIHRVEVYIQGDKIHVNMHVWYNVNGQTMEVDLHSEMIKVDGQWRLDSEIISIR | 1.33 |
| DEDTKLMEEVIRLHMELLKTGNWDELLHMLDPNAKFEAEGRDKHGWHNFLREYKHFYEELGFKHSRVHHVRVQGDKLEMDLRINVGDKEFETNLEVLKVNGRWLIKFVRID | 1.58 |
| DEREEDAREAEEIILEDLRTGDWERISRNFDPNVRMHVGDKKYHGREDAIREIKRLMSDMGIKHHSITDSRLQGEWLFLHVEVHFNGRTHDVEIIMIKVNGKWVFKEVRIG | 1.99 |
| SEEEEEADRLEEHWVKSLLTGDEEELAKNADPNTRLDIDGKIVHGMEHFIRFFSEIFKRVDHTEIRIRDSKFDGDKIHNRVEILIRFNGRTIRIDVRIIMRKVDGRWIHESMHIE | 1.9 |
| DEEEHDLRLAVELWHRLLETGDERVEKHLIDPHVRVHFNGRDLHGREAATWTLRTMGVKVFELKRIETFNGQVNIHQHVNVDGQHYDLIIHARKIDGRWVNESMRIH | 0.667 |
| DEDLSRNFHQFIEALKQNDTDRMKELIDPNARMRYGDKQLHGRENILNYWKKLNDQARVDLDLKSVRNDENHIRYNYKMRVHVNGRPVEDTATAEIRATNGRIVDIYIDFDPEKLRQIES | 2.16 |
| TEDWELMKKAMEDLSRDLSTGDFERINRMLDPHTKLVVGDKEHHGMHAWEIFVKRIDHERSVEVRHFRIIGDKIDIDGTLHAEYGEKRITLKVHIIDSKVNGKWVIEVLSFK | 1.4 |
| DEDERNHEEIWELFLRVVMTGDWNLHKEMLDPHVRIDIDGVHIHGREEAVKHIRHLRVELNHFHIEDVKIVNGRARIQTHEEVTIRIDGVRIETRRSTELIMIKVDGRWLLHHEIVR | 0.524 |
| DEDEERVKLASELYTHIMHTGDERLTKEFFDPRVRSDINGRELHGREIITEMVSRYKNMTLHSHREEVQGEWAFIDGRMEYGDKEWKIHIITLKVNGRWVVTEIEFH | 0.778 |
| SEHEEHIKRHIEHVIHHWMTGNWEELLRLMDPNVRLILHIGDKEIHSIGMEEILRRLHEYKKKIKNATIHIDHIDMQGDKTTIHETIHIGDYVYDTRIILVIVNGRIKRIEYQVH | 0.128 |
| DEDEQAFRHIMELKIHNINTGDEESLRRLMDPHVRIIIGDKQFHGMEFATEVFRRLGIKYIEDFKIDDLRIQGDKLDAHVTVRGNFNGVHTFHKMRLILRKYDGRWYIEHEEIK | 2.14 |
| DERTEVSEEFHRILIKVWRTGDETLSHQLADPHAKAEIGDKTIHGRDLWKEVFRRESERYDHYDSRLKDVKVQGDYINLDVHLILHVDGVPVRTDVIEIVLKFNGRWRLHSFHVK | 0.684 |
| DEDDEHTHEMLKLVITAINTGDFEKWRHMADPNVRSDIDGQEVHGRETIIEVWRRIEKELGIENVEVHTRRVEVINGVAHIDGHIRFNGRTHKVRIEVYLINGKIQEFVLSRH | 1.45 |
| SEDEEHAREFIKILFELLLTGDFKARLERLDPHTRLDVDGKDVHGMENINDLWLRIVEKYKNIQIHFHIHDVSIIGDKIHLHVHVEINVNGVNLRHEELTIVQKFNGKWIIKERHYI | 1.38 |
| SEEEELIHILERLIIEFRRTGNEEAWMNLMDPHAKVEIGDFDLIGRDEVSRWLHHLRIDDIHITLRRFRDIDGRVISYGEENIRVDFNGQHVEFRRRSILILFKVDGQWYIESIHVH | 0.959 |
| SEHDEELERWARLILHLLYTGNEEELRKMMDPDVRLNVNGRELHGWKKAMELWRIIKEHLRIHHVDIHDIDVFDGRNHVDIRINTNINGQEYIYKTEIIIVIIDGRMRSHEVRVK | 1.74 |
| DEHDQHLKEWLDILLEVISTGDESRLQEMLDPNARLDVNGRKIHGRDEVLRAFHDHLDRFDHLHDLRIEHSNTVDGKAYIEGRDDGVVDGKRVFLRTRYFIITVNGKVHEVKIEID | 1.92 |
| DEELHHQERLLREFLHAEFTGDEDKLRHLADPRTRSDLEFENVEIVLHGMDEHVKWWEELGFKIDEMRISRIDVVGNFIILDTRVRGHINGQETHFEHHIIINTINGKIHSIRVHTK | 0.735 |
| SEDEELARIIMHLLEHATKTGDERILRKLLDPHVKIRVNGKDLIGWEEEHRRHEKLGADHLHLELIFKDWEFVGDYIKVHGEMRVRVNQGDKTDERNYEVRFYLLKVNGRWILESIQIH | 2.63 |
| TEEEEESKKAVEDLLHTIKTGNEEHMDRLLDPNVRLHVGDKDFVGREAFRHFWHEEWERFKNIKVELEDVKIFNGRVQIVLRIDIGDKHHRLHVYADKINGRWFIKRVEIE | 2 |
| DEREKLAKKFLELFLHYIETGDEEVLRKLLDPSTRLEVNGRDNHGWKMFIWLLRELRIHRVHMELKVTDIQGDYVRNEGRLRSDVEYGDKRFETEYMVIIFLEKVDGRWHLHSFEVD | 1.56 |
| DEDEKEYTEMVLILSRMIETGDEDSLRRLMDPHAKIHINGKEIHGRELWVHILHEHKRKLGYDNIRVNVHRIWVHGDKIRVHGHLHIDGKEHEVHVHIEKINGRWVLRHDEIR | 1.68 |
